The target of assay [1] is C2-GST-biotin (C-terminal TRPV4 fragment C2) (human). As to the kind of experiment: AlphaScreen or HTRF; C2-biotin with CaM-Flag or mutants, Ca2+ concentration varied.
In assay [2] the target is YFP-fused C1 fragment (full-length TRPV4 C terminus). As to the kind of experiment: FRET acceptor photobleaching in HEK293 cells. To be noted: coexpressed in HEK293 cells; 3 independent experiments; parent: est. 35; read off a plot.
Assay [3] addresses C2-Flag (C-terminal TRPV4 fragment C2) (human). As to the kind of experiment: AlphaScreen or HTRF; competition: acceptor beads with C2-Flag, donor beads with P2-biotin or C2-biotin, increasing CaM, 100 µM Ca2+ or 1 mM EGTA.
The target in assay [4] is N1-YFP (full-length TRPV4 N terminus). As to the kind of experiment: FRET or BRET; acceptor photobleaching FRET of CFP- and YFP-fused TRPV4 termini coexpressed in HEK293 cells.
Chain of N1-YFP (full-length TRPV4 N terminus) (Q9HBA0 whole entry, the tested form may be a part): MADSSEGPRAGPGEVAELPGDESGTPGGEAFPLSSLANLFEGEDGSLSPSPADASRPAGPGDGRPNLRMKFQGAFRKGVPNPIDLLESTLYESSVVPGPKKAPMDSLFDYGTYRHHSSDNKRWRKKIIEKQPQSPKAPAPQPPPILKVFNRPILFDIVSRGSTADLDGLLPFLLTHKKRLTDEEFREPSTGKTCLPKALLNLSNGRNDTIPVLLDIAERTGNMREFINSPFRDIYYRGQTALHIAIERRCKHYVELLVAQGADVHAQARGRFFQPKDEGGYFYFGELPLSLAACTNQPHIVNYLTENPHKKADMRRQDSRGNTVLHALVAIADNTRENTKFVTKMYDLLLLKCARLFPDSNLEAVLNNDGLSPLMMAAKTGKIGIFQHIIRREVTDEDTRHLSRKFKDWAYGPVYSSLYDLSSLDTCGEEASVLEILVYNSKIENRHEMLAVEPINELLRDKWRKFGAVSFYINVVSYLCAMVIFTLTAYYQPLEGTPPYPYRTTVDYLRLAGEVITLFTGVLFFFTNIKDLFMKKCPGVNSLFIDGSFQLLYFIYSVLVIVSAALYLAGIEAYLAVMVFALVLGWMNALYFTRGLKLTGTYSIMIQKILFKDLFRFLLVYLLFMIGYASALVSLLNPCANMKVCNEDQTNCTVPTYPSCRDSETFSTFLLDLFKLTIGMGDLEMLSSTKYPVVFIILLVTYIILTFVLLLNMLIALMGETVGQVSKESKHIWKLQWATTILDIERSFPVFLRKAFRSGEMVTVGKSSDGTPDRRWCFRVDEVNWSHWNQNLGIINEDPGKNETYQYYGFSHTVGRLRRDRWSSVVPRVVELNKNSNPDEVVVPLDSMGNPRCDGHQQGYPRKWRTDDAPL

Chain of C2-Flag (C-terminal TRPV4 fragment C2) (human) (Q9HBA0 whole entry, the tested form may be a part): as above
Chain of CFP-fused N1 (full-length TRPV4 N terminus) (domain or fragment) (Q9HBA0 whole entry, the tested form may be a part): as above
Chain of C2-GST-biotin (C-terminal TRPV4 fragment C2) (human) (Q9HBA0 whole entry, the tested form may be a part): as above

For the substance “wild type CaM-Flag (from UniProt P0DP23 1-149) (natural protein)”, in assay [1], the EC50 of Ca2+ for the interaction was determined as 8.8 µM. As for “CFP-fused N1 (full-length TRPV4 N terminus) WIA”, the response in assay [2] is 25%.

For “CFP-fused N1 (full-length TRPV4 N terminus) KRA”, in assay [2], the response stood at 17%. With “calmodulin (from UniProt P0DP23 1-149) (natural protein)”, the IC50 in assay [3] worked out at 0.166 µM.

In assay [1], “CaM12 (CaM mutant Ca2+ binding-deficient in the N lobe), Flag-tagged (from UniProt P0DP23 1-149) (natural protein)” came in with an EC50 of Ca2+ for the interaction of 10.7 µM. Still for that read-out and setting: as for “CaM34 (CaM mutant Ca2+ binding-deficient in the C lobe), Flag-tagged (from UniProt P0DP23 1-149) (natural protein)”, the figure is 27 µM.

In the case of “CFP-fused N1 (full-length TRPV4 N terminus) (domain or fragment)”, the maximal relative donor fluorescence increase after acceptor bleaching in assay [4] was determined as 1.27.

(Values after publication PMC2867956, “Interdomain Interactions Control Ca^2+-Dependent Potentiation in the Cation Channel TRPV4” (PLoS ONE, 2010).)
